{"source": "paper PMC10533412", "about": "(Nature, 2023)", "target": "the molecule itself", "assay": "SEC-MALS; single protein at 5 mg/ml, Superdex 200, 20 mM HEPES pH 7.5, 150 mM NaCl"}
{"protein": "BTN2A1 B30.2 domain (domain or fragment, human, butyrophilin 2A1 (BTN2A1), human, intracellular B30.2 domain with the C-terminal tail; Homodimer by SEC-MALS and in the crystals; source: E. coli BL21 (DE3), purified (Ni-NTA, TEV cleavage, Ni-NTA or DEAE Sepharose)) EELRWRRTFLHAVDVVLDPDTAHPDLFLSEDRRSVRRCPFRHLGESVPDNPERFDSQPCVLGRESFASGKHYWEVEVENVIEWTVGVCRDSVERKGEVLLIPQNGFWTLEMHKGQYRAVSSPDRILPLKESLCRVGVFLDYEAGDVSFYNMRDRSHIYTCPRSAFSVPVRPFFRLGCEDSPIFICPALTGANGVTVPEEGLTLHRVGTHQSL", "values": [{"measurement": "stoichiometry N", "value": 2}]}
